# Molecular target: T1, WalK-LgBIT (native WalK) (S. aureus, UniProt Q2FKN7 1-608)
# T1 construct: WalK, transmembrane sensor histidine kinase of the WalKR two-component system, S. aureus NRS384 (USA300); open reading frame with the stop codon removed; also called WalK Wt; source: S. aureus NRS384, from plasmid pLgBIT, in living cells
# T1 sequence (looked up): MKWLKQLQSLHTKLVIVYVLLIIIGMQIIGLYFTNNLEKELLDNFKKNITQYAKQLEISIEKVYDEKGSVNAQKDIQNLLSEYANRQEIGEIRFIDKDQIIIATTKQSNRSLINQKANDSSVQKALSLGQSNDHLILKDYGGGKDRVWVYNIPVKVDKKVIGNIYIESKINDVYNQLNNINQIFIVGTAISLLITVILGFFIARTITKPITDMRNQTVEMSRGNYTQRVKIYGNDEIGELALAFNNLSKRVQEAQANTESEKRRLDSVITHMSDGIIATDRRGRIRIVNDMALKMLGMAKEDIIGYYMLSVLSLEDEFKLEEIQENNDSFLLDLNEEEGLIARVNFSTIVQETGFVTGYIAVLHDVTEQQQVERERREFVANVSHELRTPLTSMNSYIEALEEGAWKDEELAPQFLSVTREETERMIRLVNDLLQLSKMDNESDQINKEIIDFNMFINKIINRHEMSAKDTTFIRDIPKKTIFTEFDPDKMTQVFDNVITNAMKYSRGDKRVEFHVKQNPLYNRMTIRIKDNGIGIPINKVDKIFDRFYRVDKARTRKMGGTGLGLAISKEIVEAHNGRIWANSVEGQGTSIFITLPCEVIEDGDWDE
# Test: split reporter (BiFC, NanoBiT); WalR-SmBIT (pSmBIT) and WalK-LgBIT (pLgBIT) alleles together in living S. aureus NRS384; LB with chloramphenicol, kanamycin and Nano-Glo substrate 1:5,000, 37°C, 96-well plate; OD600nm and light emission (RLU) read every 10 min over 8 h; lag and exponential phase
# Settings: partners not purified
binder,measurement,value
"WalR_(T101A)-SmBIT (natural protein, WalR, response regulator, S. aureus NRS384 (USA300); open reading frame with the stop codon removed; also called ""down"" mutant; source: S. aureus NRS384, from plasmid pSmBIT, in living cells) MARKVVVVDDEKPIADILEFNLKKEGYDVYCAYDGNDAVDLIYEEEPDIVLLDIMLPGRDGMEVCREVRKKYEMPIIMLTAKDSEIDKVLGLELGADDYVAKPFSTRELIARVKANLRRHYSQPAQDTGNVTNEITIKDIVIYPDAYSIKKRGEDIELTHREFELFHYLSKHMGQVMTREHLLQTVWGYDYFGDVRTVDVTIRRLREKIEDDPSHPEYIVTRRGVGYFLQQHE",fold change of the maximal level of interaction against native WalK/WalR,1.5 fold

# Reference: PMC10746227, “The two-component system WalKR provides an essential link between cell wall homeostasis and DNA replication in Staphylococcus aureus” (mBio, 2023)
